The results in this text go back to patent US20160053014A1 (SORRENTO THERAPEUTICS, published 2016).

Numbering of substitutions follows the chain as printed.

B1: 12D3 (antibody, V domains shown)
VH: EVQLVESGGGLVKPGRSLRLSCAASGFTFSSYAMHWVRQAPGKGLEWVAVISYDGSNKYYADSVKGRFTISRDNSKNTLYLQMNSLRAEDTAVYYCARLRWLDYWGQGTLVTVSS
VL: QPVLTQPASVSGSPGQSIAISCTGTSSDVGSNNRVSWYQQHPGKAPKLMIYEVDKRPSGVSNRFSGSKSGNTASLTISGLQAEDEADYYCGTWDSSLSAYVFGTGTKLTVL
notes: tested as human IgG
B2: 15G11 (antibody, V domains shown)
VH: QVQLVQSGGGVVQPGGSLRLSCAASGFAFNRYGMHWVRQAPGQGLEWVAVISYDGSLKYYADSVKGRFTISRDNSNNTLYLQMNSLSADDTAVYYCAKGGAALDSWGQGTLVTVSS
VL: DVVMTQSPLSSPVTLGQPASISCRSSQSLVHSDGTTYLSWLQQRPGQPPRLLIYKISNRFSGVPDRFSGSGAGTDFTLKISRVEAEDVGVYYCMQTTQFPPMFGQGTKVEIK
notes: tested as human IgG
B3: 11E3 (antibody, V domains shown)
VH: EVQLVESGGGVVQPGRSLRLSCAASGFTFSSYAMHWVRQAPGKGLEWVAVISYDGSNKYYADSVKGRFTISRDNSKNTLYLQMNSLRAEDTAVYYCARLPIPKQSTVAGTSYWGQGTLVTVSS
VL: LPVLTQPASVSGSPGQSITISCTGTSSDVGGYNYVSWYQQHPGNAPKLMIYDVSNRPSGVSNRFSGSKSGNTASLTISGLQAEDEADYYCSSYTSSSTLYVFGTGTKLTVL
notes: tested as human IgG
B4: 11G3 (antibody, V domains shown)
VH: EVQLVQSGGGVVQPGRSLRLSCAASGFTFSSYAMHWVRQAPGKGLEWVAVISYDGSNKYYADSVKGRFTISRDNSKNTLYLQMNSLRAEDTAVYYCARLTRGSDYYGSGRSMNDYWGQGTLVTVSS
VL: DIVMTQTPLSLPVTLGQPASISCRSSQSLVHSDGNTYLNWFQQRPGQSPRRLIYKVSNRDSGVPDRFSGSGSGTDFTLKISRVEAEDVGVYYCMQGTHWPPTFGQGTKVEIK
notes: tested as human IgG
B5: 13E10 (antibody, V domains shown)
VH: EVQLVQSGAEVKKPGASLKISCRASGYTFTRNYIHWVRQAPGQGLEWLGIINPNGGSTRYSQKFQGRVTMTRDTSTRTVYMELSSLRSEDTAVYYCAREAPKYCSGSSCYSGGVDYWGQGTLVTVSS
VL: QPVLTQPLSASGTPGQRVTISCSGSSSNIGSNYVYWYQQLPGTAPKLLIYRNYQRPSGVPDRFSGSTSGTSASLAISGLRSEDEADYHCAAWDGSMRGWVFGGGTKLTVL
notes: tested as human IgG
B6: 16F9 (antibody, V domains shown)
VH: EVQLVESGGEVKKPGASVKLSCKSSGYTFTSYYMHWVRQAPGQGLEWMGIINPSGGSTSSAQKFQGRVTMTRDTSTRTVYMELSSLRSEDTAVYYCARGAPNWNYARTLFDYWGQGTLVTVSS
VL: SYELTQPRSVSGSPGQSVTISCTGTSSDVGGYNSVSWYQQHPGKAPKLMIYDVSKRPSGVPDRFSGSKSGNTASLTISGLQAEDEADYYCSSYSSSTTHVVFGGGTKLTVL
notes: tested as human IgG
B7: 14E5 (antibody, V domains shown)
VH: EVQLVESGGGVVQPGRSLRLSCAASGFTFSSYGMHWVRQAPGKGLEWVAVISYDGSNKYYADSVKGRFTISRDNSKNTLYLQMNSLRAEDTAVYYCAKVYSRGSDYWGQGTLVTVSS
VL: QSVLTQPASVSGSPGQSITISCTGTSSDVGGYNYVSWYQQHPGKAPKLLIYDVSRRPSGISSRFSGSKSGNTASLTISGLQTEDDGDYYCLSYTTSRAVVFGGGTKLTVL
notes: tested as human IgG
B8: 12G10 (antibody, V domains shown)
VH: EVQLVESGGGVVQPGRSLRLSCAASGFTFSSYAMHWVRQAPGKGLEWVAVISYDGSNKYYADSVKGRFTISRDNSKNTLYLQMNSLRAEDTAVYYCARIAVAGTHFDYWGQGTLVTVSS
VL: SYELMQPPSVSGTPGQRVTISCSGSTSNVGSNTVNWYRQFPGTAPKLLIYANNQRPSGVPDRFSGSKSGTSASLAISGLQSENEADYYCAAWDDSLNGYVFGTGTKLTVL
notes: tested as human IgG
B9: 13E4 (antibody, V domains shown)
VH: QITLKESGGGVVQPGRSLRLSCAASGFTFSSYGMHWVRQAPGKGLEWVAVISYDGSNKYYADSVKGRFTISRDNSKNTLYLQMNSLRAEDTAVYYCANNGWATYPDYWGQGTLVTVSS
VL: QPVLTQPASVSGSPGQSITISCTGTSSDVGGYNYVSWYQQHPGKAPKLMIYDVSNRPSGVSNRFSGSKSGNTASLTISGLQAEDEADYYCSSYTSSSTLVFGGGTKLTVL
notes: tested as human IgG
B10: 13F9 (antibody, V domains shown)
VH: EVQLLESGGGLIQPGGSLRLSCAASGFIFSRYGMHWVRQAPGKGLEWVAVTSYDGRSKYYTDSVQGRFTISRDNSKNTLDLQMNSLRAEDTAVYYCARLHTVGPWHFDLWGRGTLVTVSS
VL: B9 VL with Q1S, P2Y, V3E, A8R, I18V, A45V, D52E, T72A
notes: tested as human IgG
B11: 16F8 (antibody, V domains shown)
VH: B1 VH with V5L, K13Q, R16G, A33G, M83L, L99G, R100Q, W101N
VL: B9 VL with V35I, D52E, T94R, L99Q
notes: tested as human IgG
B12: 12D11 (antibody, V domains shown)
VH: EVQLVQSGAEVKKPGASVKVSCKASGYTFTGYYLNWVRQAPGQGLEWMGWINPNNGGTNYAQRFQGRVTMTRDTSISTAYMDLSRLRSDDTAVYYCVRGTRKYYHDSNGRRRDYYYGMDVWGQGTTVTVSS
VL: AIRMTQSPSSLSASVGDRVTITCRASQSISSYLNWYQQKPGKAPKLLIYAASSLQSGVPSKFSGSGSGTEFTLTISSLQPEDFATYYCQQYKFYPPNFGGGTKVEI
notes: tested as human IgG
B13: 52H9 (antibody, V domains shown)
VH: B8 VH with E1Q, A33G, R98K, I99L, A100S, V101G, A102P, G103T, T104A, H105K
VL: B9 VL with P2S, I18V, S27R, Y34F, S65T, Y89H, T94R, S95R, S96G, S97D
notes: tested as human IgG
B14: 12C1 (antibody, V domains shown)
VH: EVQLLESGGGLVKPGGSLRLSCAASGFTFNNYAMHWVRQAPGKGLEWLTVISFYGGKQYYADSVKGRFTISRDNSRNTLYLQMNSLRADDTAVYYCARDNGRHFDYWGQGTLVTVSS
VL: B9 VL with N55K, S91T, T94R, S96G, S97R, L99Y, G103S, L107V
notes: tested as human IgG

For the first assay, the target named is T1, murine CXCR5 (murine, UniProt Q04683 1-374).
T1 construct: whole, on cells; Endogenous receptor on mouse spleen cells cultured with LPS
T1 sequence (looked up): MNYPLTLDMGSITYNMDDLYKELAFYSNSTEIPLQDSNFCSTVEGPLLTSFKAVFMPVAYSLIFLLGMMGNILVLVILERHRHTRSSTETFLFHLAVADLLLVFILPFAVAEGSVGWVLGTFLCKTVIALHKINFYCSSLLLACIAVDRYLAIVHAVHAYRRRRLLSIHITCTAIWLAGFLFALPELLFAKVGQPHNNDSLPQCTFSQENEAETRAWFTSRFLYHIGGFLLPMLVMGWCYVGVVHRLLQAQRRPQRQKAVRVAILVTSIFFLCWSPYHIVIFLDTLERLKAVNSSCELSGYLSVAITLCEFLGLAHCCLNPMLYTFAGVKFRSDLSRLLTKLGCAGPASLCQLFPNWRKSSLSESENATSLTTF
The assay can be described thus: flow cytometry on LPS-cultured mouse spleen cells, IgG titration. Here is the method:
In this example, mouse spleen cells were harvested from either C57B1/6 or athymic nu/nu mice. Cells were cultured at 2×10⁶ per ml with LPS at 10 micrograms per ml in RPMI+10% FCS for up to 4 days at 37° C. in 5% CO2. Cells were harvested, washed and resuspended in FACS Buffer (2% Fetal Bovine Serum in PBS) at 1×10⁶ cells/ml and 50 μl (0.5×10⁵ cells) were aliquoted into the wells of a 96-well plate. Plated cells were spun down and the supernatant discarded. Cells were resuspended in 30 μl FACS Buffer containing serially diluted concentrations of CXCR5 IgG in triplicate. Plates were incubated for 1 hr at 4° C. and then washed 2x with FACS Buffer. Cells were resuspended in 50 μl goat anti-human IgG (γ-chain specific)-PE conjugated secondary antibody (Southern Biotech #2040-09) diluted 1:500 in FACS Buffer. Cells were further incubated for 30 min at 4° C. and then washed 1× with FACS Buffer. The cells were resuspended in a final volume of 30 μl FACS Buffer and analyzed using the Intellicyt Flow Cytometer. Median fluorescence in the FL-2H channel was determined using FlowJo software and EC₅₀ value was determined by plotting the data in GraphPad Prism and analyzing using a variable slope non-linear regression.
For orientation: Flow cytometry measures light scatter and fluorescence of single cells or particles in a stream.
In the case of B1, the EC50 (usually the midpoint of the concentration-response curve) stood at 27 nM. B2: the concentration for a half-maximal effect (EC50) stood at 4.8 nM. In turn, B3 yielded an EC50 of 11 nM. The molecule B4 returned a concentration for a half-maximal effect (EC50) of 37 nM. The same measure, in the same setting: as for B5, the figure is 25 nM. As for B6, the EC50 stood at 3.1 nM. Consider B7, for which the EC50 was determined as 2.8 nM.

The molecule B8 yielded an EC50 of 2.5 nM.

In turn, B9 returned an EC50 of 5.5 nM. B10 returned an EC50 of 23 nM. B11 showed an EC50 of 15 nM.

A further assay concerns the target T2, human CXCR5 (human, UniProt P32302 1-372).
T2 construct: whole, on cells; also called hu-CHO; CHO-CXCR5 cells
T2 sequence (looked up): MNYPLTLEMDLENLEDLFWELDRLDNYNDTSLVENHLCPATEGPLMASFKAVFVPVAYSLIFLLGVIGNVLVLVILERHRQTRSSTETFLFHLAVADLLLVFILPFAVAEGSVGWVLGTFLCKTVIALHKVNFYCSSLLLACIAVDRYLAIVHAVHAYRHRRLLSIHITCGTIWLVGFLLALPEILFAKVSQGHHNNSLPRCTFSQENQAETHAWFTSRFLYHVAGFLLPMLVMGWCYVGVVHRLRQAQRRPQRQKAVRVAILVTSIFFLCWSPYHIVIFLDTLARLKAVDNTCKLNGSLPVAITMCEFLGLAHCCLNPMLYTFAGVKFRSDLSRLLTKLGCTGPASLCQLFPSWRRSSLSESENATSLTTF
Put plainly: flow cytometry on CHO-CXCR5 cells, IgG titration. From the text: This example describes a cellular binding assay to determine the EC₅₀ for anti-CXCR5 antibodies binding to human CXCR5. […] In this example, CHO-CXCR5 cells were lifted from culture flasks using non-enzymatic Cell Dissociation Buffer—PBS based (Life Technologies #13151-014). Cells were resuspended in FACS Buffer (2% Fetal Bovine Serum in PBS) at 1×10⁶ cells/ml and […] were aliquoted into the wells of a 96-well plate. Plated cells were spun down and the supernatant discarded. Cells were resuspended in 30 μl FACS Buffer serially diluted concentrations of CXCR5 IgG in triplicate. Plates were incubated for 1 hr at 4° C. and then washed 2× with FACS Buffer. Cells were resuspended in 50 μl goat anti-human IgG (γ-chain specific)-PE conjugated secondary antibody (Southern Biotech #2040-09) diluted 1:500 in FACS Buffer. Cells were further incubated for 30 min at 4° C. and then washed 1× with FACS Buffer. The cells were resuspended in a final volume of 30 μl FACS Buffer and analyzed using the Intellicyt Flow Cytometer. Median fluorescence in the FL-2H channel was determined using FlowJo software and EC₅₀ value was determined by plotting the data in GraphPad Prism and analyzing using a variable slope non-linear regression.
With B1, it took 1.3 nM to reach a half-maximal effect (EC50). As to B2, the EC50 came to 0.4 nM. The molecule B12 registered an EC50 of 2.1 nM. Regarding B3, the EC50 was 1.8 nM. With B4, the EC50 was 2.6 nM. Molecule B5 returned an EC50 of 0.7 nM. B6 returned an EC50 of 0.7 nM. For B7, a half-maximal effect (EC50) was put at 0.3 nM. Same read-out and setting: as for B8, the figure is 0.5 nM. As for B13, the EC50 came out at 4 nM. On the same count and under the same terms, next, B9: 0.9 nM; B14: 12 nM; B10: 1.6 nM. Take B11: the EC50 amounted to 3.6 nM.
